Source: US20220031842A1 (JIANGSU HENGRUI MEDICINE, published 2022)
Where a chain is given by its changes, count along the chain named.

T1: Fusion protein of LAG-3 extracellular region and mIgG2a Fc (human)
T1 construct: Limits of the signal peptide are marked only by lost underlining; also called LAG-3-mFc; LAG-3-mFc fusion protein
T1 chain: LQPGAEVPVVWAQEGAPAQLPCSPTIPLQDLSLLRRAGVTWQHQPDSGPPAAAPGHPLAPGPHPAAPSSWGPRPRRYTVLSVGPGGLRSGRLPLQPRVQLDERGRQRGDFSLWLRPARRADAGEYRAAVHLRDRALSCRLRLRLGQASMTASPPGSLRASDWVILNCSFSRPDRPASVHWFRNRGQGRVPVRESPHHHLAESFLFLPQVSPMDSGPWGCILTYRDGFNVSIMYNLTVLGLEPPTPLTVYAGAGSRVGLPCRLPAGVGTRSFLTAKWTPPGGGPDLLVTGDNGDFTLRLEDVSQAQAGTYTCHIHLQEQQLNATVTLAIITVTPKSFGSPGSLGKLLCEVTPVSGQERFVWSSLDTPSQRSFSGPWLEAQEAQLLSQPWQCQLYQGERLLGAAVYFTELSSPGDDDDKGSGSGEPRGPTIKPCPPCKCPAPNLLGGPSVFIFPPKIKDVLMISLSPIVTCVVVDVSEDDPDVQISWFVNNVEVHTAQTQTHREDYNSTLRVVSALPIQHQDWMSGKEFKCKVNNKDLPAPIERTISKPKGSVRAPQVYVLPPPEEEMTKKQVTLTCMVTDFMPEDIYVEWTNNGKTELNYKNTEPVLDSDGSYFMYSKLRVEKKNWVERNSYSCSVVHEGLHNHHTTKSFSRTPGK

T2: LAG-3 extracellular domain with a Flag tag (human, UniProt P18627 23-434)
T2 construct: also called LAG-3-Flag; LAG-3-Flag antigen
T2 sequence: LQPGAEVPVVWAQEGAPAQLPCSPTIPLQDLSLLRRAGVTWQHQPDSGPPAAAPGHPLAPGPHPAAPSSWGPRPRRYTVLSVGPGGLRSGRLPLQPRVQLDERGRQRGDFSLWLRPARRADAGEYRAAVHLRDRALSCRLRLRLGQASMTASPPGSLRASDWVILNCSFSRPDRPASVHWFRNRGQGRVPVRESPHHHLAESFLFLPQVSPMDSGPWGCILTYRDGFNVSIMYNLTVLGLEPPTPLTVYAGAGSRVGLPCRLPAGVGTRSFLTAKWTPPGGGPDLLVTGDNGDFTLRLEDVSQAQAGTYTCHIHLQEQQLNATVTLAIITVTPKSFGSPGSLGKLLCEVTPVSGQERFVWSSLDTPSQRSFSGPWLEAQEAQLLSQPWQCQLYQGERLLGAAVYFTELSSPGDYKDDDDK

B1: Hu303-010 (antibody, human IgG4 S228P, kappa, V domains shown)
VH: QVQLVQSGAEVKKPGASVKVSCKASGYTFTDYYMNWVRQAPGQRLEWMGVINPYNGDTAYNQKFKGRVTITVDKSASTAYMELSSLRSEDTAVYYCTRDDGYYDYYFDVWGQGTTVTVSS
VL: DIQMTQSPSSLSASVGDRVTITCRASQDIGSRLNWYQQKPGKAPKRLIYATSTLDSGVPSRFSGSRSGTDFTLTISSLQPEDFATYYCLQLASSPPTFGGGTKVEIKR
notes: Humanized mAb303
B2: Hu229-014 (antibody, human IgG4 S228P, kappa, V domains shown)
VH: QVQLVQSGSELKKPGASVKVSCKASGYTFTTSGMSWVKQAPGQGLKWMGWINTYSGVPTYADDFKGRFVFSLDTSVSTAYLQISSLKAEDTATYYCARDNYDARDVYYYAMDYWGQGTTVTVSS
VL: DIQMTQSPSSLSASVGDRVTITCRASENIYSNLAWYQQKPGKAPKLLVYAATNLADGVPSRFSGSGSGTQYTLTISSLQPEDFATYYCQHFWITPWTFGGGTKVEIKR
notes: Humanized mAb229
B3: Hu229-013 (antibody, human IgG4 S228P, kappa, V domains shown)
VH: B2 VH
VL: B2 VL with Q70D
notes: also called LAG-3 antibody Hu229-013; LAG3 antibody Hu229-013
B4: Hu229-015 (antibody, human IgG4 S228P, kappa, V domains shown)
VH: B2 VH
VL: B2 VL with A43S
notes: Humanized mAb229
B5: Hu229-009 (antibody, human IgG4 S228P, kappa, V domains shown)
VH: B2 VH with K38R, T93V
VL: B2 VL with Q70D
notes: Humanized mAb229
B6: Hu229-010 (antibody, human IgG4 S228P, kappa, V domains shown)
VH: B2 VH with K38R, T93V
VL: B2 VL
notes: Humanized mAb229
B7: Hu229-017 (antibody, human IgG4 S228P, kappa, V domains shown)
VH: B2 VH with Y95F
VL: B2 VL with Q70D
notes: Humanized mAb229
B8: Hu229-019 (antibody, human IgG4 S228P, kappa, V domains shown)
VH: B2 VH with Y95F
VL: B2 VL with A43S
notes: Humanized mAb229

Target: T1, Fusion protein of LAG-3 extracellular …
Experiment: ELISA, LAG-3-mFc captured by anti-mouse Fc on plate (which fusion: inferred)
Description: The binding ability of anti-LAG-3 antibody to human LAG-3 protein was detected by ELISA assay. LAG-3 fusion protein with Fc or mFc tag was immobilized into 96-well microtiter plate by binding to anti-Fc or anti-mFc antibody coated on the microtiter plate, the strength of the signal after the addition of the antibody was used to determine the binding activity of the antibody to LAG-3, the specific experimental method is as follows.
The goat anti-human Fc antibody (Jackson Immuno Research, Cat No. 109-005-008) or goat anti-mouse Fc antibody (Sigma, Cat No. M3534-1ML) was diluted to a concentration of 2 μg/ml with PBS buffer at pH 7.4 (Sigma, Cat No. P4417-100TAB), and added to a 96-well plate at a volume of 50 μl/well and then, the plate was incubated in the incubator at 37° C. for 2 hours. After discarding the liquid, the plates were blocked with 200 μl/well of blocking solution containing 5% skim milk (Bright Dairy, skim milk powder) in PBS, and incubated in the incubator at 37° C. for 2.5 hours or overnight at 4° C. (16-18 hours). After blocking, the blocking solution was discarded and the plate was washed 5 times with PBST buffer (PH7.4 PBS containing 0.05% tween-20). LAG-3-Fc fusion protein (SEQ ID NO:3, produced in-house) or LAG-3-mFc fusion protein (SEQ ID NO: 4, produced in-house) was diluted with sample diluent (PH7.4 PBS containing 1% BSA) to 1 μg/ml and was added to each well, 50 μl/well. Then the plate was incubated in the incubator at 37° C. for 1 h or overnight at 4° C. After incubation, the reaction solution in the plate was discarded, and the plate was washed with PBST for 6 times, and then was added with 50 μl/well of various concentrations of antibodies to be tested (hybridoma purified antibody or humanized antibody) which have been diluted with sample diluent, and the plate was incubated at 37° C. for 1 h. The plates was washed 5 times with PBST after incubation, and was added with 100 μl/well of goat anti-mouse (Jackson Immuno Research, Cat No. 115-035-003) or goat anti-human secondary antibody (Jackson Immuno Research, Cat No. 109-035-003) labeled with HRP, diluted in sample diluent, and the plate was incubated at 37° C. for 1 h.

Row | EC50 | Binder
1 | 0.137 nM | B1
2 | 0.153 nM | B2
3 | 0.106 nM | B3
4 | 0.156 nM | B4
5 | 0.152 nM | B5
6 | 0.174 nM | B6
7 | 0.048 nM | B7
8 | 0.068 nM | B8

The binders below were run against T3, Fusion protein of LAG-3 extracellular region and hIgG1 Fc (human) (assay: competition: biotin-LAG-3-Fc binding to fixed Daudi cells, antibody titrated).
T3 construct: Limits of the signal peptide are marked only by lost underlining; also called LAG-3-Fc; LAG-3-Fc fusion protein
Description: Daudi cells (human leukemia cells, purchased from the cell bank in Chinese Academy of Sciences) were seeded in 96-well plate with a density of 3×10⁵/well. After centrifugation at 1000 rpm, the supernatant was discarded and then the plate was fixed with 4% PFA for 30 min at room temperature. The plate was washed 4 times with PBS after discarding the fixed solution, and the plate was blocked with 200 μl/well of blocking solution containing 5% skim milk (Bright Dairy, skim milk powder) diluted in PBS, and incubated at 37° C. for 2.5 hours. After blocking, the blocking solution was discarded and the plate was washed 5 times with PBST buffer (pH7.4 PBS containing 0.05% tween-20), added with 50 μl/well mixture of biotin-labeled (Biotin labeling kit, Dojindo Chemical, Cat No. LK03) LAG-3-Fc fusion protein (produced in-house, SEQ ID NO: 3) and gradient concentrations of the antibody to be tested, wherein the biotin-labeled LAG-3-Fc fusion protein has been diluted with sample diluent (PH7.4 PBS containing 1% BSA) at a final concentration of 0.4 μg/ml, and pre-mixed for an hour, then the plate was incubated at 37° C. for 1 h. The reaction solution was discarded and the plate was washed 5 times with PBST after incubation, 50 μl/well of HRP-labeled Streptavidin (Sigma, Cat No. 52438) diluted with sample diluent was added, and the plate was incubated at 37° C. for 1 h. After washing the plate 5 times with PBST, 50 μl/well of TMB chromogenic substrate (KPL, Cat No. 52-00-03) was added to each well, and incubated at room temperature for 5-15 min, the reaction was stopped by the addition of 50 μl 1M H₂SO₄ to each well. The OD value at a wavelength of 450 nm was read on NOVOStar microplate reader, and then the activity of the LAG-3 antibody in blocking the binding of the antigen to Daudi cells was calculated.

T3 sequence (chain, as listed by the source limits assumed): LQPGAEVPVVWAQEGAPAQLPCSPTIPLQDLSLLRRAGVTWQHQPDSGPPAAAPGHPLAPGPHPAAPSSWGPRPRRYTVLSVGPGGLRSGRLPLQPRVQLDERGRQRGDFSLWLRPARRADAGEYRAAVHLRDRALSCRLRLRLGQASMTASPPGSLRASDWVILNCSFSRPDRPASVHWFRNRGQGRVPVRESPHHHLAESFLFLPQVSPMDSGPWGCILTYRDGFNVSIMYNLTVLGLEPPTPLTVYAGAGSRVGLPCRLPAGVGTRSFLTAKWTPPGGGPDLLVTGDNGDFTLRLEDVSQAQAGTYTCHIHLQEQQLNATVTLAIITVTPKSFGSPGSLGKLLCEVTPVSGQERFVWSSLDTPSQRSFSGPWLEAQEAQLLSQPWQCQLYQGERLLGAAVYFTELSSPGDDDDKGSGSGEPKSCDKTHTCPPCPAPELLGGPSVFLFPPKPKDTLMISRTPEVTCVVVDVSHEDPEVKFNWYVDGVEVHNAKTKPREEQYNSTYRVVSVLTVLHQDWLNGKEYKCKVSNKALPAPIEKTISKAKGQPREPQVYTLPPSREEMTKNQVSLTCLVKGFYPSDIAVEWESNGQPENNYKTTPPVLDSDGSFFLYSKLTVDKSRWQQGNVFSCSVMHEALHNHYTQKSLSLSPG

Row | IC50 | Binder
9 | 0.346 nM | B1
10 | 0.718 nM | B2
11 | 0.39 nM | B3
12 | 0.808 nM | B4
13 | 0.559 nM | B5
14 | 0.453 nM | B6
15 | 0.239 nM | B7
16 | 0.289 nM | B8

The binders below were run against T2, LAG-3 extracellular domain with a Flag … (assay: SPR (Biacore), antibody captured on anti-human capture chip, LAG-3-Flag in flow).
Description: 2. […] Then, the LAG-3-Flag antigen (produced in-house, SEQ ID NO:1) was flowed through the surface of the biochip, and the reaction signal was detected real time using a Biacore instrument to obtain the binding and dissociation curves, the value of affinity was obtained by fitting, see table 10 below. After each cycle of dissociation was finished in the experiment, the biochip was washed and regenerated with a regeneration solution provided in the human anti-capture kit.

Row | Kd | Binder
17 | 0.147 nM | B1
18 | 0.0374 nM | B2
19 | 0.0281 nM | B3
20 | 0.0459 nM | B4
21 | 0.0488 nM | B5
22 | 0.0382 nM | B6
23 | 0.0671 nM | B7
24 | 0.0729 nM | B8
